Laboratory results published in PMC2275150.

Target: T1, Cdc13-DBD (Saccharomyces cerevisiae, UniProt P32797 497-694)
T1 sequence: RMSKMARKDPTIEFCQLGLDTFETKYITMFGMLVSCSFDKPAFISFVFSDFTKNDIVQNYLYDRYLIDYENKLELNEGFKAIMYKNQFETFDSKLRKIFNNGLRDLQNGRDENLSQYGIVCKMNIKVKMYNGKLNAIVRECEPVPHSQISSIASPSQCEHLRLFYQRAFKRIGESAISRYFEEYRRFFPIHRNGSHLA
Assay: NMR

Question: Does GTGTGGGTGTG (ssDNA) [Tel11] bind?
Answer: Result: binds
